Source: US20050260661A1, “Assays for the identification of modulators of MHC class II expression” (priority 2004, published 2005)

Columns and labels:
[1] = molecular target: T1, interaction between CIITA and Flag-RFXANK (Homo sapiens, UniProt P33076); test: CIITA/RFXANK interaction assay, competition with untagged RFXANK; format: binding; details: FIG. 7
T1 construct: made in house; host or cells: Sf9 insect cells (recombinant baculovirus); CIITA co-infected with a BirA baculovirus
T1 sequence (P33076 1-1130): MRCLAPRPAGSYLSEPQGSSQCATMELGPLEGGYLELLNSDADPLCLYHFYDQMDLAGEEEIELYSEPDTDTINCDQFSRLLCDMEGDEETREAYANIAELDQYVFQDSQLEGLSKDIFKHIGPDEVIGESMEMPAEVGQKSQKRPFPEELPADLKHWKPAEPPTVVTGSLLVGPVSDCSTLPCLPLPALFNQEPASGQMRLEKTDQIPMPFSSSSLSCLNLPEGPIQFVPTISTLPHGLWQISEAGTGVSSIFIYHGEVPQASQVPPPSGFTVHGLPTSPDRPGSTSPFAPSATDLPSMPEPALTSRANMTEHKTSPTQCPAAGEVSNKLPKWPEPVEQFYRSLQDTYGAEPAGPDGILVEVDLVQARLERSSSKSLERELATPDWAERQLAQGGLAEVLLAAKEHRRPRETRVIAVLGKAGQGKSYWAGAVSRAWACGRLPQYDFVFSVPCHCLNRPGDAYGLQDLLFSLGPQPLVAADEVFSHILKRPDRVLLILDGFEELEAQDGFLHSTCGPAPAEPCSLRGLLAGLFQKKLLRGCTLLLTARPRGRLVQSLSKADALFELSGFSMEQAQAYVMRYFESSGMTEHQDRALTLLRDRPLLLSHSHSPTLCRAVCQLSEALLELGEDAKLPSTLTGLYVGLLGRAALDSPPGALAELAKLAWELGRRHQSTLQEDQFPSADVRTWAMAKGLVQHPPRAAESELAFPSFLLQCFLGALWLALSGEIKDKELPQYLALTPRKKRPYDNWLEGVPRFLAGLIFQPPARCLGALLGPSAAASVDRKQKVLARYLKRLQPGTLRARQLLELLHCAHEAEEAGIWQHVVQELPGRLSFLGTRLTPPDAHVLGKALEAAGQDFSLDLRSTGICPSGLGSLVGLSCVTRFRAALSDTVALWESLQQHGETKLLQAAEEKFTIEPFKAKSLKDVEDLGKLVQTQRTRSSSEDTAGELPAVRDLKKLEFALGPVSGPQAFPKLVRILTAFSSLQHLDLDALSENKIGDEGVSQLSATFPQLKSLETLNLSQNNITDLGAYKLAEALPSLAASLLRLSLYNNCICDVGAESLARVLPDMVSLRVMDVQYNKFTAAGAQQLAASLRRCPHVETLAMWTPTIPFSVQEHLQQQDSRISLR
Protocol: Plasmids. The CIITA gene sequence was cloned into a modified pBAC-2 cp vector (Novagen) with a biotinylation tag inserted at the 5′ end of the gene. The RFXANK gene sequence containing a Flag tag at its N-terminus was cloned into a pFBHT vector (Invitrogen). These plasmids were used to generate recombinant baculoviruses according to standard procedures. Protein production: Sf9 cells grown in SF-900II medium (Invitrogen) were infected at MOI of 10 for 72 h before harvesting. To obtain in vivo biotinylated CIITA, Sf9 cells were co-infected with an E. coli biotin ligase expressing baculovirus (BirA gene) at a MOI of 1. Protein were purified using metal chelating affinity chromatography on HiTrap chelating column (Pharmacia). Purified fractions were pooled and quantified using ESL protein quantification kit (Roche) and the extent of CIITA biotinylation was estimated by pulldown experiments with Streptavidin-coated magnetic beads followed by PAGE analysis.
Assay. […] Wells were washed 5 times with 200 μl of wash solution (PBS; 0.05% Tween 20) and the adequate substrates for HRP were added to the well for either colorimetry, fluorescence or luminescence detection. […]

[2] = molecular target: T2, Biotinylated-CIITA (UniProt P33076 1-1130, biotin on the biotinylation tag (in vivo biotinylation by co-expressed E. coli biotin ligase BirA; level close to 100%)); test: solid-phase plate assay: biotinylated CIITA on a streptavidin well, Flag-RFXANK detected with M2:HRP, colorimetric; assay and negative control each performed 48 times
T2 construct: Made in Sf9 cells from a modified pBAC-2cp baculovirus vector; also called recombinant biotinylated-CIITA; not shown: biotinylation tag inserted at the 5' end of the gene
T2 sequence (looked up): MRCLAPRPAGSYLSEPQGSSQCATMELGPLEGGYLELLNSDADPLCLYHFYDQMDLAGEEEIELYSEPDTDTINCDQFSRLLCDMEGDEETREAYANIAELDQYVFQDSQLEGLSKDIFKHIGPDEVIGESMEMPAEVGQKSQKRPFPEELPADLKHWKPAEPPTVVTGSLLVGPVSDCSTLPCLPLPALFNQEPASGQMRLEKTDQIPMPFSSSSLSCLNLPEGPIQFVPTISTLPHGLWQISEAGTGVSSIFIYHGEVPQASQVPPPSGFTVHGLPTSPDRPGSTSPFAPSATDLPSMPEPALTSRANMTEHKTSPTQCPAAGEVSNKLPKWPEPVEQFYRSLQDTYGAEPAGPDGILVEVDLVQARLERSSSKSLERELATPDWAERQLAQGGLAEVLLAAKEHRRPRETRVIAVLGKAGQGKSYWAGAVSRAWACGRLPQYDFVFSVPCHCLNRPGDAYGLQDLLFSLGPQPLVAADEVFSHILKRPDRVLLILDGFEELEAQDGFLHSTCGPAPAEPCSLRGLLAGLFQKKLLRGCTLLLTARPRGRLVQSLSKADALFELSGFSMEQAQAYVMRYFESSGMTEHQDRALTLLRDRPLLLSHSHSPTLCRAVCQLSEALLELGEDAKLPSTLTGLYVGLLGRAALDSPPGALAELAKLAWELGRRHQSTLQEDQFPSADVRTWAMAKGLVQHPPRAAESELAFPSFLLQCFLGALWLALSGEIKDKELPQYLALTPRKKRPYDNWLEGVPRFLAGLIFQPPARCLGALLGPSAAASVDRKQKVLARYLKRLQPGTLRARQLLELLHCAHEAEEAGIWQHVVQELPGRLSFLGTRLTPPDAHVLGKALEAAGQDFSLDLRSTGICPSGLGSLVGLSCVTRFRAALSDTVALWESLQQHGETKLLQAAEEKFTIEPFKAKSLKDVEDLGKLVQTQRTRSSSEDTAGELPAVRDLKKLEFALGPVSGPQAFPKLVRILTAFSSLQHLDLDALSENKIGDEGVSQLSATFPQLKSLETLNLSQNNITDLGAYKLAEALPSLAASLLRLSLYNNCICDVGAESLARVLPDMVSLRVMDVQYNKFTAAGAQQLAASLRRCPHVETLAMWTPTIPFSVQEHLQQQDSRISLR
Protocol: Assay. Biotinylated-CIITA (0.5 μg) and 0.8 μg of Flag-RFXANK in 100 μl of assay buffer (50 mM Hepes pH7.8; 10% glycerol; 5 mM MgCl₂; 0.1 mM EDTA; 0.01% NP-40; 200 mM KCl; 0.5% BSA; 0.1% Tween 20; 2 mM DTT) were incubated in a streptavidin-coated microwell for 2 h at room temperature. Wells containing no protein, only biotinylated CIITA or Flag RFXANK were included as controls. Wells were washed 5 times with 200 μl of wash solution (PBS; 0.05% Tween 20). 100 μl of Assay Buffer containing 0.5 μg/ml M2:HRP antibody (Sigma) was added to each well and incubated for 1 h at room temperature. Wells were washed 5 times with 200 μl of wash solution (PBS; 0.05% Tween 20) and the adequate substrates for HRP were added to the well for either colorimetry, fluorescence or luminescence detection.
To examine its reproducibility, the assay and negative control were performed 48 times. […] Increasing amounts of RFXANK were added to the wells containing biotinylated CIITA and Flag-RFXANK in the same assay as described above.

reduction of signal of the CIITA/Flag-RFXANK interaction ([1]; equivalent amounts of Flag-RFXANK and RFXANK): approximately 50%
signal to background ratio (S/B) [2]: 11.8
B1: RFXANK having an N-terminal Flag tag (Flag-RFXANK) (other, UniProt O14593 1-260, looked up)
chain: MELTQPAEDLIQTQQTPASELGDPEDPGEEAADGSDTVVLSLFPCTPEPVNPEPDASVSSPQAGSSLKHSTTLTNRQRGNEVSALPATLDSLSIHQLAAQGELDQLKEHLRKGDNLVNKPDERGFTPLIWASAFGEIETVRFLLEWGADPHILAKERESALSLASTGGYTDIVGLLLERDVDINIYDWNGGTPLLYAVRGNHVKCVEALLARGADLTTEADSGYTPMDLAVALGYRKVQQVIENHILKLFQSNLVPADPE
notes: not shown: Flag tag at the N-terminus
competition of Flag-RFXANK for binding to CIITA ([1]; increasing amounts of RFXANK added to wells containing biotinylated CIITA and Flag-RFXANK): specifically competed by RFXANK for binding to CIITA in a dose-dependent manner
